Assay results published in patent publication US8202973B2, “Method for the production of vitamin K-dependent proteins” (Novo Nordisk Health Care AG, priority 2000, dated 2012).

Tests used:
[1] = biological target: T1, gamma-glutamyl carboxylase (Homo sapiens, UniProt P38435); conditions: free propeptide of vitamin K-dependent protein, positions -18 to -1; cited from earlier work
T1 sequence (P38435 1-758): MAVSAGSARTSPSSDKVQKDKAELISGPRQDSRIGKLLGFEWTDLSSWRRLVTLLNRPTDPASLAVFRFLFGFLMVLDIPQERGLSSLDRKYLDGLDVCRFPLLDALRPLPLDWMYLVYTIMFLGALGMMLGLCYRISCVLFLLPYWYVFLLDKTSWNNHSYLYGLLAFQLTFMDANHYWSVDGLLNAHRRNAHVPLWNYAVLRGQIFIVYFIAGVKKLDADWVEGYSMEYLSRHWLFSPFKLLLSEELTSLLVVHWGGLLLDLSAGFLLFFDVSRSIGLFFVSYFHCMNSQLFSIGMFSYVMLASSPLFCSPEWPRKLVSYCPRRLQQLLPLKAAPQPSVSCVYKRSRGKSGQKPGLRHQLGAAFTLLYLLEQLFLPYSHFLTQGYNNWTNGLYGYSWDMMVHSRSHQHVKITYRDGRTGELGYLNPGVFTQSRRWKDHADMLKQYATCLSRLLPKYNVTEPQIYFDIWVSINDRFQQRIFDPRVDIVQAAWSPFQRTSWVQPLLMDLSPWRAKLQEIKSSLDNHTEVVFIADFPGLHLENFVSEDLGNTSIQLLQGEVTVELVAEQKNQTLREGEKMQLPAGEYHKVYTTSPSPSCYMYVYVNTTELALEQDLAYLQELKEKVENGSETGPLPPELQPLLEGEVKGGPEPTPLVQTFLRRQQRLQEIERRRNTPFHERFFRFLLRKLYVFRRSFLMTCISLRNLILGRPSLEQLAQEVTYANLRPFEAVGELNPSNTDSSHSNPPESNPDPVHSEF

CHO-K1 cells = assay: FVII expression of CHO-K1 cells coexpressing FVII and a free FVII propeptide; type: cell-based; conditions: pools of CHO-K1 transfectants, pLN174 plus FVII propeptide in pcDNA3.1+; control with empty vector approximately 1 pg/cell/day
Method: CHO K1 cells (ATCC CCI61) were transfected with equal amounts of pLN174 and pLN329 with the Fugene6 method (Boehriner-Mannheim). Transfectants were selected by the addition of methotrexate to 1 μM and G-418 to 0.45 mg/ml. The pool of transfectants were cloned by limiting dilution and FVII expression from the clones was measured.
CHO-K1 cells were transfected with pLN174 and 1) empty pcDNA3.1+ vector or 2) FVII propeptide in pcDNA3.1+, as described in Example 1. Pools of transfectants were analysed for FVII expression and cell numbers. The FVII yields pr. cell pr. 24 hours are outlined in FIG. 3.

Substance | Ki [1] | FVII yields pr. cell pr. 24 hours (CHO-K1 cells)
propeptide of Prothrombin, HVFLAPQQARSLLQRVRR (SEQ ID NO:6) (listed as Homo sapiens) | 277 nM | –
consensus propeptide sequence AVFLSREQANQVLQRRRR (SEQ ID NO:1) (listed as Homo sapiens) | 0.43 nM | –
propeptide of Matrix Gla Protein, NPFINRRNANTFISPQQR (SEQ ID NO:3) | 5.8 nM | –
propeptide of Protein S, ANFLSKQQASQVLVRKRR (SEQ ID NO:4) (listed as Homo sapiens) | 12.2 nM | –
propeptide of proline-rich Gla protein 1, RVFLTGEKANSILKRYPR (SEQ ID NO:5) (listed as Homo sapiens) [PRGP1] | 12.8 nM | –
propeptide of Protein C, SVFSSSERAHQVLRIRKR (SEQ ID NO:9) (listed as Homo sapiens) | 230 nM | –
propeptide of FVII, AVFVTQEEAHGVLHRRRR (SEQ ID NO:7); expressed free from plasmid pLN329 (listed as Homo sapiens) | 11.1 nM | ~4 pg/cell/day
propeptide of factor X, SLFIRREQANNILARVTR (SEQ ID NO:2) (listed as Homo sapiens) | 2.6 nM | –
